The values that follow come from publication PMC3399880, “Genomic Organisation, Embryonic Expression and Biochemical Interactions of the Zebrafish Junctional Adhesion Molecule Family of Receptors” (PLoS ONE, 2012).

B1: zebrafish Jamc ectodomain (extracellular IgSF domains) fused to rat Cd4 domains 3 and 4 (domain or fragment, UniProt A3KPA0 24-235, looked up)
chain: VLLKSTNSKPWVNEFESIELSCMIESITTTKPRIEWKKIKNGDPSYVYFDNQISGDLERRAKIREPATLVILNATRSDSADYRCEVTAPNDQKSFDEILISLTVRVKPVVPRCSVPKSIPVGKPAELHCLEDEGYPKSQYQWFRNKEEIPLDPKSSPKFFNSTYTLDGEMGTLKFSAVRKEDAGEYYCRAKNEAGISECGPQMMEVYDINIA
notes: Jamc (official symbol jam3b), zebrafish orthologue of JAM-C; extracellular IgSF domains; Stood both as analyte and as ligand (6H and bio forms); also called Jam3b; JAM-C orthologue; source: mammalian expression system, purified; analyte resolved by gel filtration immediately before use; not shown: rat Cd4 domains 3 and 4, C-terminal, kept
B2: zebrafish Jamb ectodomain (extracellular IgSF domains) fused to rat Cd4 domains 3 and 4 (domain or fragment, UniProt A0A0R4IGV4 19-226, looked up)
chain: VTVSSRNPKVEVHEFSDAELSCEFKTEKDTNPRIEWKRKDKEKDVSFVYYGERFVGPFQDRADIEGATVRLRRVTQADAGEYRCEVSAPSDSISLGETNVTLRVLVPPQTPSCDVPSSALTGSQVELRCRDRHSIPPAVYTWYKDNRALPIRHPNATYTVNEFTGVLIPQSHYNPGTVCQHCMYHPNYHIPNTQLTTTFQTHDLNVAA
notes: Jamb (official symbol jam2a), zebrafish orthologue of JAM-B; extracellular IgSF domains; Stood both as analyte and as ligand (6H and bio forms); also called Jam2a; JAM-B orthologue; source: mammalian expression system, purified; analyte resolved by gel filtration immediately before use; not shown: rat Cd4 domains 3 and 4, C-terminal, kept

What all share (experiment): SPR; systematic all-against-all screen of the six ectodomains, each as analyte and as ligand; dissociation phase of three concentrations of purified analyte averaged and fitted to a first-order decay curve; t1/2 = ln 2/kd; 28°C; half-lives in the text are the average of both orientations; t1/2 <=0.1 s not quantifiable (10 Hz instrument)
Data set [1] addresses zebrafish Jamc ectodomain (extracellular IgSF domains) fused to rat Cd4 domains 3 and 4 (zebrafish) (UniProt A3KPA0).
The target of data set [2] is zebrafish Jamc2 ectodomain (extracellular IgSF domains) fused to rat Cd4 domains 3 and 4 (zebrafish).
Data set [3] concerns the molecule itself.
Data set [4] concerns the target B1. Particulars: both partners purified.

As for “zebrafish Jamb2 ectodomain (extracellular IgSF domains) fused to rat Cd4 domains 3 and 4 (from UniProt B0V233 1-306) (domain or fragment)”, in data set [1], the t1/2 (half-life of the complex) amounted to 0.26 s. In turn, “zebrafish Jamb ectodomain (extracellular IgSF domains) fused to rat Cd4 domains 3 and 4 (from UniProt A0A0R4IGV4 19-226) (domain or fragment)” gave a t1/2 (half-life of the complex) in data set [2] of 7 s.

For “zebrafish Jamc2 ectodomain (extracellular IgSF domains) fused to rat Cd4 domains 3 and 4 (from UniProt A0ACD6B6E9 1-301) (domain or fragment)”, the t1/2 (half-life of the complex) in data set [2] worked out at 0.11 s. As for B1, the “t1/2 (half-life of the complex)” value in data set [3] is 0.67 s. With B2, the “t1/2 (half-life of the complex)” value in data set [4] was roughly 1.63 s.
